Tested on: MS2 coat protein
Test: apparent KD of MS2 coat protein; designed switch direction (-1 OFF switch, 1 ON switch): -1; higher = weaker reporter binding
How it was run: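 Each step of the titration lasted 0.8–1.5 h at the lowest concentration and 10–20 min at the highest. The protein, SNAP-549-labelled MS2 coat protein, went from 0.7 or 1.5 nM doubling to 3 µM over RNA switches transcribed on Illumina chips by stalled E. coli RNA polymerase. Normalised cluster fluorescence was curve-fitted, and the per-design median over clusters is given as apparent KD.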

[1] = Eterna round: R95, input ligand: FMN 200 uM
[2] = Eterna round: R95, input ligand: microRNA oligo, concentration not stated
[3] = Eterna round: R95, input ligand: none
[4] = input ligand: microRNA oligo, concentration not stated

## UUACAAUGUCGCUUAUAAGCUUUUUGCUCGUCUUAUAUUACAUGAGGAUCACCCAUGUAGAUCAUGUGGCGUGACCU [JL ViennaUCT Maridi mod 8] (puzzle: Sensor v3, turn-off variant 2)
[1]
  apparent KD of MS2 coat protein: 264 nM
[2]
  apparent KD of MS2 coat protein: 47.9 nM
[3]
  apparent KD of MS2 coat protein: 345 nM

## CGGUGCUGAGGAUAUACAUGAGGAUCACCCAUGUGUGCCAGCUAGAAGACUGGCACUUGUAGAAGGCAGUACUG [Mat - Exclusion 3 - Mod of JL D90] (puzzle: Exclusion 3)
[2]
  apparent KD of MS2 coat protein: 10.3 nM

## UAUUAGCAAGCAACUGGGUACAUGAGGAUCACCCAUGUGCUCGUCUUAUAAGGUACUGUGACGAAAGUCACUGUACC [mod--Eli14] (Eterna round: R97, puzzle: Sensor, turn-off variant 1)
Input ligand: FMN 200 uM
  apparent KD of MS2 coat protein: 17.8 nM
Input ligand: none
  apparent KD of MS2 coat protein: 16.3 nM

## AGAUGGCGAGGAUAUACAUGAGGAUCACCCAUGUGAAGAGAAAGAGUGAGGAAGAAAAGUAGAAGGCGCUGUCA [Mat - Exclusion 3 - Mod of Salish D29] (puzzle: Exclusion 3)
[1]
  apparent KD of MS2 coat protein: 897 nM
[2]
  apparent KD of MS2 coat protein: 99.7 nM
[3]
  apparent KD of MS2 coat protein: 88.2 nM

## AGUCCAGAUGUUAGGAUAUGCAACUAGCCAUUGUAGCAGAAGGAACAUGAGGAUCACCCAUGUACAAAGACCCG [Edgeraer] (puzzle: Brourd's mod of Exclusion 4)
[1]
  apparent KD of MS2 coat protein: 47.4 nM
[2]
  apparent KD of MS2 coat protein: 13.4 nM
[3]
  apparent KD of MS2 coat protein: 11.3 nM

## AAUCCACAUGAGGAUCACCCAUGUCAGGAUAUGGUGACGCGGGUUUCGGUGCGUGUUGCCAGAAGGGACGGCUG (puzzle: Exclusion 1)
[2]
  apparent KD of MS2 coat protein: 23.8 nM

## CAAAACAGAGGAUAUACAUUUCCUCACCGCCAAAUGGCGGAACAUGAGGAUCACCCAUGUAGAAGGCUGGAAAA [Gesous] (puzzle: Exclusion 2)
[1]
  apparent KD of MS2 coat protein: 292 nM
[2]
  apparent KD of MS2 coat protein: 114 nM
[3]
  apparent KD of MS2 coat protein: 118 nM

## UAUAUAUAGUAAGGAUAUGUAUAUAUAUUAUAAACAGAAGGUACUGACAUGAGGAUCACCCAUGUUUUAGUGUGGGCAUGUAGA [JMF's solution 58] (Eterna round: R96, puzzle: Exclusion NG 1)
[4]
  apparent KD of MS2 coat protein: 53.8 nM

## UUAUGGCGAGAGGAUAUUCUGCUACGGCCCGGAGAAGAAGGUUUGACAUGAGGAUCACCCAUGUGGUCGCUCCU [Eternabot (L2) Solution 29] (Eterna round: R97, puzzle: Exclusion 6)
Input ligand: FMN 200 uM
  apparent KD of MS2 coat protein: 138 nM
Input ligand: none
  apparent KD of MS2 coat protein: 238 nM

## GAUUAUGCGAGCUUUAGGGACAUGAGGAUCACCCAUGUUCGUCUUAUUAGUCUAGAUGCACUGACAUACCUAAAUCU [JMF 78] (puzzle: Sensor v3, turn-off variant 1)
[1]
  apparent KD of MS2 coat protein: 15 nM
[2]
  apparent KD of MS2 coat protein: 19.6 nM
[3]
  apparent KD of MS2 coat protein: 14.4 nM

## UCGCUCCGUGUAGGAUAUCGCCGUACUAUUCGGCGAGAAGGACAUGAGGAUCACCCAUGUAUGUUAUUAUCACGCGUGGCGCAA [Design 59] (Eterna round: R96, puzzle: Exclusion NG 1)
Input ligand: FMN 200 uM
  apparent KD of MS2 coat protein: 20.3 nM
[4]
  apparent KD of MS2 coat protein: 15.2 nM
Input ligand: none
  apparent KD of MS2 coat protein: 16.9 nM

## GGUGCGUUUGUGAGGAUAUGCUGGUCCUUGGAUCGGCAGAAGGCACAUGAGGAUCACCCAUGUGGUGUCGUACC [salish99_Bmod_Ex4_035] (puzzle: Brourd's mod of Exclusion 4)
[2]
  apparent KD of MS2 coat protein: 280 nM

## UCUGGUCGAGGAUAUAUAUGACGUGCUUCGGCACGAAGGUCACAUGAGGAUCACCCAUGUAGAAGGCGACCAGA [E2/9-A3] (Eterna round: R97, puzzle: Exclusion 2)
Input ligand: FMN 200 uM
  apparent KD of MS2 coat protein: 375 nM
Input ligand: none
  apparent KD of MS2 coat protein: 52.1 nM

## ACAAAGCUUUUUGCUCGUCACAUGAGGAUCACCCAUGUGAUAUAAUGAAAAUUAUAUGACAUCCCACUAGGACAUGU [I did it?] (Eterna round: R97, puzzle: Sensor, turn-off variant 1)
Input ligand: FMN 200 uM
  apparent KD of MS2 coat protein: 18.5 nM
Input ligand: none
  apparent KD of MS2 coat protein: 20.9 nM

## AGAGAAUACUCAGGAUAUCUUAAUAGAAAGAGUAGAGAAGGGAGACAUGAGGAUCACCCAUGUGAAGUCUUGAGACUACAUGGU [Prohibition 28 - Jieux - Exclusion NG 1] (Eterna round: R96, puzzle: Exclusion NG 1)
[4]
  apparent KD of MS2 coat protein: 305 nM

## CUUUUUGUCGAGGAUAUGCACCAGCUCACUGACGCAGAAGGCGACACAUGAGGAUCACCCAUGUCAGUUCGCGU [salish99_ex6_r004_433] (Eterna round: R97, puzzle: Exclusion 6)
Input ligand: FMN 200 uM
  apparent KD of MS2 coat protein: 35.3 nM
Input ligand: none
  apparent KD of MS2 coat protein: 20 nM

## UUUGUCUGUGUGAGGAUAUACUUGUUUGGGUUUUUGUAGAAGGCACAUGAGGAUCACCCAUGUAUUUUGUCGUG [JR_BME4_Sub018] (puzzle: Brourd's mod of Exclusion 4)
[2]
  apparent KD of MS2 coat protein: 36.7 nM

## GGUUAUUGCAAGGAUAUGCUUUUUUUUUAUUUUGCAGAAGGUGCAACAUGAGGAUCACCCAUGUUGGAGGGUUU [JR_E6_Sub023] (puzzle: Exclusion 6)
[2]
  apparent KD of MS2 coat protein: 21.7 nM

## UAUUACCCAAGCAGGUCCCACAUGAGGAUCACCCAUGUGCUCGUCUUAUAACGAUCUGUGGGAAAACCUACGGAUCG [Elimod 20 - Jieux - Sensor, turn-off variant 1] (Eterna round: R97, puzzle: Sensor, turn-off variant 1)
Input ligand: FMN 200 uM
  apparent KD of MS2 coat protein: 27.7 nM
Input ligand: none
  apparent KD of MS2 coat protein: 34.4 nM

## GGAGAGGGAGGAUAUGCGCCAACAAACAUGAGGAUCACCCAUGUGGUGCUCCAAGAAAGGGUAGAAGGCCCUCUCC [Default title] (puzzle: Exclusion 5)
[1]
  apparent KD of MS2 coat protein: 619 nM
[2]
  apparent KD of MS2 coat protein: 275 nM
[3]
  apparent KD of MS2 coat protein: 295 nM

## ACGGACGCAGGAUAUCGCACCGGAGACUUGAGGAUCACCCAAGUGGUUUUCCCUUCGCAACGAGAAGGGCGACCUA [Tiarle] (Eterna round: R97, puzzle: Exclusion 5)
Input ligand: FMN 200 uM
  apparent KD of MS2 coat protein: 55.7 nM
Input ligand: none
  apparent KD of MS2 coat protein: 35.2 nM

## GCCGGAUAAGUGAGGAUAUGCCUAUGGAUACGUAGGCAGAAGGCACAUGAGGAUCACCCAUGUACCUCUCCGGC [JL-BMX4-4.25 Eli mod] (Eterna round: R97, puzzle: Brourd's mod of Exclusion 4)
Input ligand: FMN 200 uM
  apparent KD of MS2 coat protein: 116 nM
Input ligand: none
  apparent KD of MS2 coat protein: 17.5 nM

## AUAAUACAUGUAGGAUAUGCGUGGCGAAGCUAUGCAGAAGGACAUGAGGAUCACCCAUGUGCUAGCGUCUGCGUACAGAUGCUA [JL eng1 1.35 mod 3] (Eterna round: R96, puzzle: Exclusion NG 1)
Input ligand: FMN 200 uM
  apparent KD of MS2 coat protein: 310 nM
[4]
  apparent KD of MS2 coat protein: 21 nM
Input ligand: none
  apparent KD of MS2 coat protein: 44.1 nM

## UUAUUACAAGCAAGAUCCUACAUGAGGAUCACCCAUGUGCUCGUCUUAUAAGGUACAGUGACGAAAGUCACAGUACC [Sensor 3, v1 - 00] (puzzle: Sensor v3, turn-off variant 1)
[1]
  apparent KD of MS2 coat protein: 204 nM
[2]
  apparent KD of MS2 coat protein: 138 nM
[3]
  apparent KD of MS2 coat protein: 221 nM

## ACCGAACAUGAGGAUCACCCAUGUAAGGAUAUCCGUGGACAGCGCCAAAGUUACCGGCGGAGAAGGUGCAUGGU (Eterna round: R97, puzzle: Exclusion 1)
Input ligand: FMN 200 uM
  apparent KD of MS2 coat protein: 24.6 nM
Input ligand: none
  apparent KD of MS2 coat protein: 19.2 nM

## AGAGUGCUGCGAGGAUAUACAUGAGGAUCACCCAUGUUUUCGUGUGAGGCUUUGCCUCACACGAAGUAGAAGGCGCAGUACUCU [Mat - Exclusion NG 2 - Mod of JL - D31] (Eterna round: R96, puzzle: Exclusion NG 2)
Input ligand: FMN 200 uM
  apparent KD of MS2 coat protein: 7.9 nM
[4]
  apparent KD of MS2 coat protein: 8.79 nM
Input ligand: none
  apparent KD of MS2 coat protein: 12.2 nM

## AAUUAUUUUUGAGGAUAUCGUGGUGAAACACCACGAGAAGGCAAGAUACACAUGAGGAUCACCCAUGUGAGCCUGAUGCUUAUG [Ex NG1 #52] (Eterna round: R96, puzzle: Exclusion NG 1)
[4]
  apparent KD of MS2 coat protein: 13.2 nM

## UUUCGUGCGCGGGUUUUUUACAUGAGGAUCACCCAUGUCCUCUGCUUGUCUUGUCUUGGGCUUUUUUUGGGUUCGGG [-19.7, -39 kcal, A 8%] (Eterna round: R97, puzzle: Sensor, turn-off variant 1)
Input ligand: FMN 200 uM
  apparent KD of MS2 coat protein: 771 nM
Input ligand: none
  apparent KD of MS2 coat protein: 868 nM

## CUUGUGUUAGGAUAUGUUAAGCCGCCACCUGGCGGAUCAGGACAGAAGGAACAUGAGGAUCACCCAUGUAAAAG [Inenxele] (Eterna round: R97, puzzle: Exclusion 4)
Input ligand: FMN 200 uM
  apparent KD of MS2 coat protein: 55.1 nM
Input ligand: none
  apparent KD of MS2 coat protein: 105 nM

## AGCCUACAUGAGGAUCACCCAUGUCAGGAUAUCUCGCGGCGCGUCAAGUUCACGCCGCAGAGAAGGGACUCGGG [Ceusxeatis] (puzzle: Exclusion 1)
[2]
  apparent KD of MS2 coat protein: 37.6 nM

## UUCCUCGUUGUGAGGAUAUCGUCCGUGUUUUGUUACGAGAAGGCACAUGAGGAUCACCCAUGUUACUUGAUGUU [JR_BMOE4_Sub073] (puzzle: Brourd's mod of Exclusion 4)
[2]
  apparent KD of MS2 coat protein: 18.9 nM

## AAGCAGCGAGGAUAUGCUUGAGCGUGUCCUAGUUGAAAUAAACUUGAGGAUCACCCAAGUAGAAGGCGCAGCCC [Rivezaed] (Eterna round: R97, puzzle: Exclusion 2)
Input ligand: FMN 200 uM
  apparent KD of MS2 coat protein: 135 nM
Input ligand: none
  apparent KD of MS2 coat protein: 49.1 nM

## GCUCACGCAGGAUAUACAUGAGGAUCACCCAUGUUCGAAGGGCGUGGGUACAAAGUCUGUAGAAGGGCGAAAAU [Edrereve] (Eterna round: R97, puzzle: Exclusion 3)
Input ligand: FMN 200 uM
  apparent KD of MS2 coat protein: 20.6 nM
Input ligand: none
  apparent KD of MS2 coat protein: 17.4 nM

## CUUCAGUAAGGAUAUCAGCUUAGGAGGUUGGUAAUGAGAGCUGAGAAGGUACAUGAGGAUCACCCAUGUUAGUU [JL Zatite mod 8] (puzzle: Exclusion 4)
[2]
  apparent KD of MS2 coat protein: 17 nM

## AUUAUGUUAGGAUAUGCUUAUGGUGGAUAGUCCAGUAUGAUGUAGAAGGGACAUGAGGAUCACCCAUGUGCUGA [EX4 #34] (Eterna round: R97, puzzle: Exclusion 4)
Input ligand: FMN 200 uM
  apparent KD of MS2 coat protein: 46.9 nM
Input ligand: none
  apparent KD of MS2 coat protein: 41.9 nM

## GCUAUGGGAGGAUAUACAUGAGGAUCACCCAUGUGUAGAGCAUACGCGCGCAUUAACAGUAGAAGGCCCUGCGU [Eternabot (L1) Solution 23] (Eterna round: R97, puzzle: Exclusion 3)
Input ligand: FMN 200 uM
  apparent KD of MS2 coat protein: 50.7 nM
Input ligand: none
  apparent KD of MS2 coat protein: 49.4 nM

Source: the supplement of paper PMC9170038
